Results reported in US8716557B2.

Assays:
[1] = molecular target: FcγRIIIa Phe/Phe^158 on human effector cells (human) (UniProt P08637)
[2] = molecular target: CD30 expressed on L540 cells (Homo sapiens (Human)) (UniProt P28908)
[3] = molecular target: CD30 expressed on L540 cells (Homo sapiens (Human)) (UniProt P28908); experiment: flow cytometry on CD30-expressing L540 cells, FITC-labeled goat anti-human secondary

Sequence of UniProt P28908 (P28908 19-595 limits assumed): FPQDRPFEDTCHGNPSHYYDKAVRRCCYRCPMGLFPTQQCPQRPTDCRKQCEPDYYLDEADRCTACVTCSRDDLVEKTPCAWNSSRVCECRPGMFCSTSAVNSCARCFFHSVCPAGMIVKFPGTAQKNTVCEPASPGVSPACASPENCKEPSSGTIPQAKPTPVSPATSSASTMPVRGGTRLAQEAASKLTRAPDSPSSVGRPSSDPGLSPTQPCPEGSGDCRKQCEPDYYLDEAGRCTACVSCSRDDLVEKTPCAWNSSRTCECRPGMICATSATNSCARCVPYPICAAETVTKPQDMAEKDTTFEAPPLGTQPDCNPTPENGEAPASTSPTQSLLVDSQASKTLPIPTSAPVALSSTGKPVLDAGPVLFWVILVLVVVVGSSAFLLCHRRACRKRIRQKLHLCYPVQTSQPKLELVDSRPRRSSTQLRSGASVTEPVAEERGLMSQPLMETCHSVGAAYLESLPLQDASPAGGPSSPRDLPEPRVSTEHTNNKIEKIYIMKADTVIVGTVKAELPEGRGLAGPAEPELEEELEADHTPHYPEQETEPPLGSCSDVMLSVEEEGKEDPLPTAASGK

Row | Substance | ADCC, maximal percent cell lysis (homozygous FcγRIIIa Phe/Phe^158 effector cells) [1] [%] | ADCC, maximal percent cell lysis (heterozygous FcγRIIIa Phe/Val^158 effector cells) [2] [%] | EC50 [3] [µg/mL] | ADCC EC50, times lower than MDX-060 CHO (FcγRIIIa Phe/Phe^158 effector cells) [1] [times lower] | ADCC EC50, times lower than MDX-060 CHO (FcγRIIIa Val/Phe^158 effector cells) [2] [times lower] | ADCC EC50, times lower than MDX-060 LEX (FcγRIIIa Val/Phe^158 effector cells) [2] [times lower]
1 | MDX-060 CHO (antibody) | 15 | 31 | 0.18 |  |  | 
2 | MDX-060 LEX (antibody) | 27 | 31 | 0.227 |  |  | 
3 | MDX-060 LEX^Opt (antibody) |  |  | 0.196 | 3 | 5 | 3
